Paper PMC13397619

B1: NLV3 TCR beta chain (CDR3β only) (parent)
chain: ASSPTGGSPSPLH

Variants of: B1
Test: T-Switch: Jurkat TCRβ−/− cells expressing a CDR3 saturation-mutagenesis library, stained with two peptide-HLA-A*02:01 tetramers (original and novel peptide) plus anti-CD3, FACS-sorted into four gates, gDNA sequenced
Conditions: tetramers 1 µg/mL, 30 min on ice, SP, DP and SW gates expanded about 10 days between rounds ('two to three rounds of selection' in the Methods), unresolved parent, parent is a CDR3 fragment, scale: fold enrichment, numbering: sequential-on-construct, sequence starts at 1
[1] = with both tetramers (double-negative gate, binds neither): HLA-A*02:01 with … and with …, gate DN: OPPOSITE: higher = more of the variant in the gate that binds neither peptide = LESS binding (or no expression; inferred). Fold enrichment of the CDR3 variant in one FACS gate of a two-tetram
[2] = with both tetramers (double-positive gate): HLA-A*02:01 with … and with …, gate DP: higher = more of the variant in the gate that binds both peptides. Fold enrichment of the CDR3 variant in one FACS gate of a two-tetramer stain. SP/DP/SW gates were expanded and re-sorted bef

Row | Variant | enrichment [1] | enrichment [2]
1 | […] (CDR3 as printed); G7C derived by comparing it with the table's wild-type CDR3 ASSPTGGSPSPLH | 0.947 | 0
2 | […] (CDR3 as printed); P4D derived by comparing it with the table's wild-type CDR3 ASSPTGGSPSPLH | 0.917 | 0
3 | […] (CDR3 as printed); A1P derived by comparing it with the table's wild-type CDR3 ASSPTGGSPSPLH | 1.02 | 0
4 | […] (CDR3 as printed); S2T derived by comparing it with the table's wild-type CDR3 ASSPTGGSPSPLH | 0.755 | 0
5 | […] (CDR3 as printed); G6A derived by comparing it with the table's wild-type CDR3 ASSPTGGSPSPLH | 0.582 | 0
6 | […] (CDR3 as printed); S10M derived by comparing it with the table's wild-type CDR3 ASSPTGGSPSPLH | 0.53 | 0
7 | […] (CDR3 as printed); L12D derived by comparing it with the table's wild-type CDR3 ASSPTGGSPSPLH | 0.327 | 0
8 | […] (CDR3 as printed); H13N derived by comparing it with the table's wild-type CDR3 ASSPTGGSPSPLH | 0.56 | 0
9 | […] (CDR3 as printed); G7F derived by comparing it with the table's wild-type CDR3 ASSPTGGSPSPLH | 1.02 | 0
10 | […] (CDR3 as printed); S8H derived by comparing it with the table's wild-type CDR3 ASSPTGGSPSPLH | 0.901 | 0
11 | […] (CDR3 as printed); T5I derived by comparing it with the table's wild-type CDR3 ASSPTGGSPSPLH | 0.355 | 0
12 | […] (CDR3 as printed); H13F derived by comparing it with the table's wild-type CDR3 ASSPTGGSPSPLH | 0.541 | 0
13 | […] (CDR3 as printed); G7Y derived by comparing it with the table's wild-type CDR3 ASSPTGGSPSPLH | 0.917 | 0
14 | […] (CDR3 as printed); P4W derived by comparing it with the table's wild-type CDR3 ASSPTGGSPSPLH | 1.23 | 0
15 | […] (CDR3 as printed); S3C derived by comparing it with the table's wild-type CDR3 ASSPTGGSPSPLH | 0.656 | 0
16 | […] (CDR3 as printed); G6V derived by comparing it with the table's wild-type CDR3 ASSPTGGSPSPLH | 1.33 | 0
17 | […] (CDR3 as printed); P9A derived by comparing it with the table's wild-type CDR3 ASSPTGGSPSPLH | 0.394 | 114
18 | […] (CDR3 as printed); S3F derived by comparing it with the table's wild-type CDR3 ASSPTGGSPSPLH | 0.989 | 0
19 | […] (CDR3 as printed); A1W derived by comparing it with the table's wild-type CDR3 ASSPTGGSPSPLH | 0.805 | 0
20 | […] (CDR3 as printed); A1I derived by comparing it with the table's wild-type CDR3 ASSPTGGSPSPLH | 1.15 | 0

Row | Variant | enrichment [1] | enrichment [2]
21 | […] (CDR3 as printed); T5D derived by comparing it with the table's wild-type CDR3 ASSPTGGSPSPLH | 1.06 | 0
22 | […] (CDR3 as printed); S3L derived by comparing it with the table's wild-type CDR3 ASSPTGGSPSPLH | 0.942 | 0
23 | […] (CDR3 as printed); S3A derived by comparing it with the table's wild-type CDR3 ASSPTGGSPSPLH | 0.616 | 0
24 | […] (CDR3 as printed); S10K derived by comparing it with the table's wild-type CDR3 ASSPTGGSPSPLH | 1.05 | 0
25 | […] (CDR3 as printed); L12G derived by comparing it with the table's wild-type CDR3 ASSPTGGSPSPLH | 0.618 | 0
26 | […] (CDR3 as printed); S2A derived by comparing it with the table's wild-type CDR3 ASSPTGGSPSPLH | 0.536 | 0
27 | […] (CDR3 as printed); S2V derived by comparing it with the table's wild-type CDR3 ASSPTGGSPSPLH | 0.992 | 0
28 | […] (CDR3 as printed); P11K derived by comparing it with the table's wild-type CDR3 ASSPTGGSPSPLH | 0.634 | 0
29 | […] (CDR3 as printed); S10V derived by comparing it with the table's wild-type CDR3 ASSPTGGSPSPLH | 0.96 | 0
30 | […] (CDR3 as printed); P9C derived by comparing it with the table's wild-type CDR3 ASSPTGGSPSPLH | 0.869 | 0
31 | […] (CDR3 as printed); G6N derived by comparing it with the table's wild-type CDR3 ASSPTGGSPSPLH | 1.47 | 0
32 | […] (CDR3 as printed); T5C derived by comparing it with the table's wild-type CDR3 ASSPTGGSPSPLH | 1.08 | 0
33 | […] (CDR3 as printed); S10E derived by comparing it with the table's wild-type CDR3 ASSPTGGSPSPLH | 1.41 | 0
34 | […] (CDR3 as printed); L12I derived by comparing it with the table's wild-type CDR3 ASSPTGGSPSPLH | 0.883 | 0
35 | […] (CDR3 as printed); L12M derived by comparing it with the table's wild-type CDR3 ASSPTGGSPSPLH | 0.583 | 0
36 | […] (CDR3 as printed); S8L derived by comparing it with the table's wild-type CDR3 ASSPTGGSPSPLH | 1.58 | 0
37 | […] (CDR3 as printed); G6W derived by comparing it with the table's wild-type CDR3 ASSPTGGSPSPLH | 1.44 | 0
38 | […] (CDR3 as printed); T5G derived by comparing it with the table's wild-type CDR3 ASSPTGGSPSPLH | 0.828 | 0
39 | […] (CDR3 as printed); S8V derived by comparing it with the table's wild-type CDR3 ASSPTGGSPSPLH | 0.756 | 0
40 | […] (CDR3 as printed); H13S derived by comparing it with the table's wild-type CDR3 ASSPTGGSPSPLH | 0.978 | 0

Row | Variant | enrichment [1] | enrichment [2]
41 | […] (CDR3 as printed); A1E derived by comparing it with the table's wild-type CDR3 ASSPTGGSPSPLH | 1.07 | 0
42 | […] (CDR3 as printed); S3K derived by comparing it with the table's wild-type CDR3 ASSPTGGSPSPLH | 1.11 | 0
43 | […] (CDR3 as printed); H13G derived by comparing it with the table's wild-type CDR3 ASSPTGGSPSPLH | 0.702 | 0
44 | […] (CDR3 as printed); H13E derived by comparing it with the table's wild-type CDR3 ASSPTGGSPSPLH | 0.868 | 0
45 | […] (CDR3 as printed); S2F derived by comparing it with the table's wild-type CDR3 ASSPTGGSPSPLH | 0.437 | 0
46 | […] (CDR3 as printed); S8Q derived by comparing it with the table's wild-type CDR3 ASSPTGGSPSPLH | 0.893 | 0
47 | […] (CDR3 as printed); P9R derived by comparing it with the table's wild-type CDR3 ASSPTGGSPSPLH | 1.13 | 0
48 | […] (CDR3 as printed); S8P derived by comparing it with the table's wild-type CDR3 ASSPTGGSPSPLH | 1.03 | 0
49 | […] (CDR3 as printed); P11T derived by comparing it with the table's wild-type CDR3 ASSPTGGSPSPLH | 1.19 | 0
50 | […] (CDR3 as printed); P4E derived by comparing it with the table's wild-type CDR3 ASSPTGGSPSPLH | 0.97 | 0
51 | […] (CDR3 as printed); S3R derived by comparing it with the table's wild-type CDR3 ASSPTGGSPSPLH | 0.964 | 0
52 | […] (CDR3 as printed); A1H derived by comparing it with the table's wild-type CDR3 ASSPTGGSPSPLH | 0.916 | 0
53 | […] (CDR3 as printed); G7A derived by comparing it with the table's wild-type CDR3 ASSPTGGSPSPLH | 0.658 | 0
54 | […] (CDR3 as printed); S8R derived by comparing it with the table's wild-type CDR3 ASSPTGGSPSPLH | 0.977 | 0
55 | […] (CDR3 as printed); P4N derived by comparing it with the table's wild-type CDR3 ASSPTGGSPSPLH | 1.17 | 0
56 | […] (CDR3 as printed); G7D derived by comparing it with the table's wild-type CDR3 ASSPTGGSPSPLH | 1.18 | 0
57 | […] (CDR3 as printed); S3W derived by comparing it with the table's wild-type CDR3 ASSPTGGSPSPLH | 0.749 | 0
58 | […] (CDR3 as printed); G6T derived by comparing it with the table's wild-type CDR3 ASSPTGGSPSPLH | 1.01 | 0
